Positions count from the first letter of the chain named.
What was measured:
[1] = system: human GRP78 promoter; assay: Overexpression of pCGN-ATF6 deletion mutants with reporter pGL3-G78(-132) in HeLa cells, ERSE-mediated transcription; type: cell-based; details: for transcription of the luciferase gene from the GRP78 promoter having ERSE: absence of endoplasmic reticulum stress (without TM)
Description: HeLa cells in a 24-well plate were transiently transfected with a reporter plasmid pGL-G78(−132) capable of expressing firefly luciferase gene under the control of human GRP78 promoter, together with pCGN vector alone (Vec) or each of ATF6 expression plasmids. Transfected cells were treated with (closed bars) or without (open bars) 2 μg/ml tunicamycin (TM) for 16 hours prior to measuring luciferase activity. The relative activities are indicated as the mean±standard deviations (bars) from four independent experiments (triplicate determinations).
Using HeLa cells co-transfected with the reporter plasmid pGL3-G78(−132) [see Example 1 (FIG. 6, line 2)] resulting from ligation of the firefly luciferase gene to downstream of the human GRP78 promoter ([−132 to +7], numbered on the basis of the translation initiation point taken as +1) and the expression plasmid for the ATF6 C-terminal deletion mutant of Example 10, the effects of each of the overexpressed C-terminal deletion mutants of ATF6 on ERSE-mediated transcriptional activation were evaluated.
Next, in the same manner as in Example 13, the effect of the overexpression of each ATF6 transcription-activating domain deletion mutant on ERSE-mediated transcriptional activation was evaluated by co-transfection with the reporter plasmid pGL3-G78(−132).

[2] = system: GRP78 promoter; assay: Co-transfection of pcDNA3.1 effector plasmid (full-length ATF6 or CREB-RP) with GRP78 promoter luciferase reporter in HeLa cells; type: cell-based, human
Description: 100 ng of an effector plasmid carrying a full-length ATF6 cDNA or plasmid vector alone was cotransfected into HeLa cells with 1 μg of a reporter plasmid containing luciferase gene fused with intact or mutant GRP promoters. The mutant promoter constructs used correspond to those of FIG. 6. Closed bars and open bars indicated cells treated with or without 2 μg/ml tunicamycin (in the figure, referred to as “TM”) for 16 hours, respectively. Experiments were repeated four times.
An effector plasmid carrying a full-length CREB-RP gene was cotransfected into HeLa cells harboring a reporter plasmid in the same manner as in FIG. 14. Experiments were repeated four times. In the figure, TM indicates tunicamycin.
An entire cDNA was inserted into the HindIII-XhoI sites or BamHI-EcoRI sites immediately downstream of the CMV promoter of pcDNA3.1(+) vector (manufactured by Invitrogen) to construct an effector plasmid for expressing ATF6 or CREB-RP, respectively.
In order to examine whether or not ATF6 is involved in the transcriptional regulation of the GRP gene in mammalian cells, HeLa cells were co-transfected with an effector plasmid carrying a full-length ATF6 cDNA and a reporter plasmid resulting from ligation of the firefly luciferase gene to downstream of the intact GRP promoter or a mutant GRP promoter, and GRP promoter activity was evaluated from the luciferase activity.
Therefore, with these findings in mind, a test was carried out to determine whether or not CREB-RP overexpression affects the activity of the GRP promoter.

[3] = presence of TM (2 μg/ml, 16 hours)

B1: ATF6(151-373): ATF6 amino acids 151st to 373rd, transcription-activating domain deletion mutant (protein, UniProt P18850 151-373, looked up, fragment)
chain: DKPVTGPRNKTENGLTPKKKIQVNSKPSIQPKPLLLPAAPKTQTNSSVPAKTIIIQTVPTLMPLAKQQPIISLQPAPTKGQTVLLSQPTVVQLQAPGVLPSAQPVLAVAGGVTQLPNHVVNVVPAPSANSPVNGKLSVTKPVLQSTMRNVGSDIAVLRRQQRMIKNRESACQSRKKKKEYMLGLEARLKAALSENEQLKKENGTLKRQLDEVVSENQRLKVPS
For B1, the “action on endogenous p50ATF6 in the nucleus” value (“action on endogenous p50ATF6” for short) [1] was “act dominant-negatively”.

B2: CREB-RP: full-length CREB-RP (SEQ ID NO: 34) expressed from pcDNA3.1(+) effector plasmid (protein, listed as Homo sapiens)
chain: MAELMLLSEIADPTRFFTDNLLSPEDWDSTLYSGLDEVAEEQTQLFRCPEQDVPFDGSSLDVGMDVSPSEPPWELLPIFPDLQVKSEPSSPCSSSSLSSESSRLSTEPSSEALGVGEVLHVKTESLAPPLCLLGDDPTSSFETVQINVIPTSDDSSDVQTKIEPVSPCSSVNSEASLLSADSSSQAFIGEEVLEVKTESLSPSGCLLWDVPAPSLGAVQISMGPSLDGSSGKALPTRKPPLQPKPVVLTTVPMPSRAVPPSTTVLLQSLVQPPPVSPVVLIQGAIRVQPEGPAPSLPRPERKSIVPAPMPGNSCPPEVDAKLLKRQQRMIKNRESACQSRRKKKEYLQGLEARLQAVLADNQQLRRENAALRRRLEALLAENSELKLGSGNRKVVCIMVFLLFIAFNFGPVSISEPPSAPISPRMNKGEPQPRRHLLGFSEQEPVQGVEPLQGSSQGPKEPQPSPTDQPSFSNLTAFPGGAKELLLRDLDQLFLSSDCRHFNRTESLRLADELSGWVQRHQRGRRKIPQRAQERQKSQPRKKSPPVKAVPIQPPGPPERDSVGQLQLYRHPDRSQPAFLDAIDRREDTFYVVSFRRGHLLLPAISHNKTSRPKMSLVMPAMAPNETLSGRGAPGDYEEMMQIECEVMDTRVIHIKTSTVPPSLRKQPSPTPGNATGGPLPVSAASQAHQASHQPLYLNHP
With B2 the “effect on reporter expression from intact GRP78 promoter” value (shortened to “effect on reporter expression”) ([2]; absence of TM) was “hardly affected”, the “effect on expression from mutant GRP78 promoter lacking all three ERSE sequences” value [2] was “did not affect” and the “effect on reporter expression” value [2, 3] was “markedly suppressed”.

B3: ATF6(330): HA-tagged ATF6 amino acids 1st to 330th; lacks the leucine zipper region (protein, UniProt P18850 1-330, looked up, fragment)
chain: MGEPAGVAGTMESPFSPGLFHRLDEDWDSALFAELGYFTDTDELQLEAANETYENNFDNLDFDLDLMPWESDIWDINNQICTVKDIKAEPQPLSPASSSYSVSSPRSVDSYSSTQHVPEELDLSSSSQMSPLSLYGENSNSLSSAEPLKEDKPVTGPRNKTENGLTPKKKIQVNSKPSIQPKPLLLPAAPKTQTNSSVPAKTIIIQTVPTLMPLAKQQPIISLQPAPTKGQTVLLSQPTVVQLQAPGVLPSAQPVLAVAGGVTQLPNHVVNVVPAPSANSPVNGKLSVTKPVLQSTMRNVGSDIAVLRRQQRMIKNRESACQSRKKKKEY
modifications: HA tag
notes: HA-tagged ATF6 amino acids 1st to 330th; lacks the leucine zipper region
B3 was tested, and the “activity compared with ATF6(373) or ATF(366)” value ([1]; nearly the same expression level) was “markedly lower activity”.

B4: ATF6: full-length ATF6, 670 amino acids (SEQ ID NO: 32), bZIP transcription factor expressed from pcDNA3.1(+) effector plasmid (protein, listed as Homo sapiens)
chain: MGEPAGVAGTMESPFSPGLFHRLDEDWDSALFAELGYFTDTDELQLEAANETYENNFDNLDFDLDLMPWESDIWDINNQICTVKDIKAEPQPLSPASSSYSVSSPRSVDSYSSTQHVPEELDLSSSSQMSPLSLYGENSNSLSSPEPLKEDKPVTGSRNKTENGLTPKKKIQVNSKPSIQPKPLLLPAAPKTQTNSSVPAKTIIIQTVPTLMPLAKQQPIISLQPAPTKGQTVLLSQPTVVQLQAPGVLPSAQPVLAVAGGVTQLPNHVVNVVPAPSANSPVNGKLSVTKPVLQSTMRNVGSDIAVLRRQQRMIKNRESACQSRKKKKEYMLGLEARLKAALSENEQLKKENGTLKRQLDEVVSENQRLKVPSPKRRVVCVMIVLAFIILNYGPMSMLEQDSRRMNPSVSPANQRRHLLGFSAKEAQDTSDGIIQKNSYRYDHSVSNDKALMVLTEEPLLYIPPPPCQPLINTTESLRLNHELRGWVHRHEVERTKSRRMTNNQQKTRILQGALEQGSNSQLMAVQYTETTSSISRNSGSELQVYYASPRSYQDFFEAIRRRGDTFYVVSFRRDHLLLPATTHNKTTRPKMSIVLPAININENVINGQDYEVMMQIDCQVMDTRILHIKSSSVPPYLRDQQRNQTNTFFGSPPAATEATHVVSTIPESLQ
B4 was tested, and the “increase of luciferase expression from GRP78 promoter having intact ERSE sequences over control vector” value ([2]; absence of TM, 100 ng effector plasmid) was 5 fold, the “effect on expression from mutant GRP78 promoter lacking all three ERSE sequences” value [2] was “not affected” and the “effect on reporter expression” value [2, 3] was “further increased”.

B5: ATF(670): full-length ATF6 with HA epitope at N-terminus, expressed from pCGN-ATF6(670) (protein, UniProt P18850 1-670, looked up)
chain: B4 chain with P145A, S157P
modifications: full-length N-terminal HA tag
B5 was tested, and the “transcription of the luciferase gene from the GRP78 promoter having ERSE” value [1] was “constitutively activated”.

B6: ATF6(151-330): ATF6 amino acids 151st to 330th, transcription-activating domain deletion mutant (protein, UniProt P18850 151-330, looked up, fragment)
chain: DKPVTGPRNKTENGLTPKKKIQVNSKPSIQPKPLLLPAAPKTQTNSSVPAKTIIIQTVPTLMPLAKQQPIISLQPAPTKGQTVLLSQPTVVQLQAPGVLPSAQPVLAVAGGVTQLPNHVVNVVPAPSANSPVNGKLSVTKPVLQSTMRNVGSDIAVLRRQQRMIKNRESACQSRKKKKEY
With B6 the “action on endogenous p50ATF6” value [1] was “act dominant-negatively”.

B7: ATF6(151-366): ATF6 amino acids 151st to 366th, transcription-activating domain deletion mutant (protein, UniProt P18850 151-366, looked up, fragment)
chain: DKPVTGPRNKTENGLTPKKKIQVNSKPSIQPKPLLLPAAPKTQTNSSVPAKTIIIQTVPTLMPLAKQQPIISLQPAPTKGQTVLLSQPTVVQLQAPGVLPSAQPVLAVAGGVTQLPNHVVNVVPAPSANSPVNGKLSVTKPVLQSTMRNVGSDIAVLRRQQRMIKNRESACQSRKKKKEYMLGLEARLKAALSENEQLKKENGTLKRQLDEVVSEN
For B7, the “action on endogenous p50ATF6” value [1] was “act dominant-negatively”.

B8: ATF6(402): HA-tagged ATF6 amino acids 1st to 402nd; retains the transmembrane domain (protein, UniProt P18850 1-402, looked up, fragment)
chain: MGEPAGVAGTMESPFSPGLFHRLDEDWDSALFAELGYFTDTDELQLEAANETYENNFDNLDFDLDLMPWESDIWDINNQICTVKDIKAEPQPLSPASSSYSVSSPRSVDSYSSTQHVPEELDLSSSSQMSPLSLYGENSNSLSSAEPLKEDKPVTGPRNKTENGLTPKKKIQVNSKPSIQPKPLLLPAAPKTQTNSSVPAKTIIIQTVPTLMPLAKQQPIISLQPAPTKGQTVLLSQPTVVQLQAPGVLPSAQPVLAVAGGVTQLPNHVVNVVPAPSANSPVNGKLSVTKPVLQSTMRNVGSDIAVLRRQQRMIKNRESACQSRKKKKEYMLGLEARLKAALSENEQLKKENGTLKRQLDEVVSENQRLKVPSPKRRVVCVMIVLAFIILNYGPMSMLEQDS
modifications: HA tag
notes: HA-tagged ATF6 amino acids 1st to 402nd; retains the transmembrane domain
B8 was tested, and the “transcription of the luciferase gene from the GRP78 promoter having ERSE” value [1] was “constitutively enhanced”.
